Experimental data from patent publication US12024555 (VANDERBILT UNIVERSITY, dated 2024).
Where a chain is given by its changes, count along the chain named.

B1: human mAb WNV-86 (antibody, V domains shown)
VH: QVQLVQSGGGLVQPGRSLRLCCAASGFSFDDFAMHWVRQAPGKGLEWVSGINWNSGHIGYADSVKGRFTISRDNAKNSLCLQMNSLRPEDTALYYCAKDRAYYFGSGTSGGAFDVWGQGTLVTVSS
VL: DIVMTQSPSSLSASVGDRVTITCRASQNIISYLNWYQQKPGKAPKLLIYDASSLQSGVPSRFSGSGSGTDFTLTISSLQPEDFATYYCQRSFSTPLTFGGGTKVEIK
B2: human mAb WNV-10 (antibody, V domains shown)
VH: QVQLVESGGGVVQPGRSLRLSCAASGFTFSSHAMHWVRQAPGKGLEWVAVISYDIINEYYADSVKGRFTISRDNSKNTLYLQMNSLRAEDTAVYYCARDGYFPNSSGEGFFDYWGQGTLVTVSS
VL: EIVMTQSPATLSVSPGERATLSCRASQSLSNNLAWYQQKPGQAPRLLIYGASTRATGIPARFSGSGSGTQFTLTISSLQSEDIAVYYCQQFNNWPWTFGQGTKVEIK
B3: human mAb WNV-57 (antibody, V domains shown)
VH: QVQLVESGGGVVQPGRSLRLACAASGFTLSDFAIHWVRQAPGKGLEWVAIISYDGNIKYYADSVKGRFTISSDNSKNTVYLQMNSLRAEDTAMYYCARDPDVVETAHDAFDIWGQGTLVTVSS
VL: DILMTQSPSSLSASVGDRVTITCRASQNIKNYLNWYQQKPGKAPKLLIYAASSLQSLVPSRFSGSGSGTDFTLTISSLQPEDFATYYCQQSYSSFRTFGQGTKVEVK
B4: human mAb WNV-62 (antibody, V domains shown)
VH: QVQLVESGGGVVQPGRSLRLSCAASGFTFSSYGMHWVRQAPGKGLEWVAVMSYDGSKIYYADSVKGRFTISRDNSKNTLYLQMDSLRAEDTAVYYCAKVGYYDGSRYDLIAEYFQYWGQGTLVTVSS
VL: QSVLTQPPSVSGAAGQRVTISCTGSSSNIGAGYDVHWYQQLPGTAPKLLIYGNNNRPSGVPDRFSGSKSDTSASLAITGLRPEDELDYYCQSYDNRLSAYVFGTGTKVTVL

Experiments:
[1] = target: T1, West Nile virus E protein T208K variant on RVPs (West Nile virus (WNV1 NY99 strain), UniProt Q9Q6P4 291-791, T208K); assay: cell-based or functional assay
T1 sequence (looked up): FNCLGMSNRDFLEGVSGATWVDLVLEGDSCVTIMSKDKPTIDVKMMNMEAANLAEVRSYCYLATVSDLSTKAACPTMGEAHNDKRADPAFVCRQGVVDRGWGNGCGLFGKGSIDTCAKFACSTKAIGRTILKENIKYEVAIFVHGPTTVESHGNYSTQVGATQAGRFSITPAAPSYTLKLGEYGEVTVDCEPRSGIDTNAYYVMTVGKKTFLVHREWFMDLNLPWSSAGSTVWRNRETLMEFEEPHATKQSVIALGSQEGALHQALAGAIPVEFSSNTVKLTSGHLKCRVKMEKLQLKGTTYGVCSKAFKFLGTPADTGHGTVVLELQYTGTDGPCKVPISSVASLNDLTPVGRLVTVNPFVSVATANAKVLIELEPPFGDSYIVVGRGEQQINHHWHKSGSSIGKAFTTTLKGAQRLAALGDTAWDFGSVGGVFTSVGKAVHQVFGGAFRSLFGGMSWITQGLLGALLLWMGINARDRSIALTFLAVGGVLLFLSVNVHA

[2] = target: T2, West Nile virus E protein T64Q variant on RVPs (West Nile virus (WNV1 NY99 strain), UniProt Q9Q6P4 291-791, T64Q); assay: cell-based or functional assay
T2 sequence (looked up): T1 sequence (looked up) with T64Q, K208T

[3] = target: T3, recombinant WNV E protein containing only DIII (West Nile virus, UniProt Q9Q6P4 586-694); assay: ELISA on plate-coated recombinant DIII
T3 construct: domain: DIII
T3 sequence: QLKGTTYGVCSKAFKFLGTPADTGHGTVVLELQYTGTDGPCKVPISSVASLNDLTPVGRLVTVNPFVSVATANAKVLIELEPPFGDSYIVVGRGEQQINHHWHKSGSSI

Binder	fold increase in neutralization IC50 relative to WT RVPs [1] [fold]	fold increase in neutralization IC50 relative to WT RVPs [2] [fold]	binding result [3]
B1	13	88	
B2			no binding
B3			no binding
B4			no binding
